This note sets out measurements from publication PMC4574351, “Tubulin cofactors and Arl2 are cage-like chaperones that regulate the soluble αβ-tubulin pool for microtubule dynamics” (eLife, 2015).

Test [1] has as its target TBC-DEG:αβ-tubulin complex (S. cerevisiae | porcine) (UniProt P40987).
Test [2] shares this target. This is another data set of the same source.
For test [3] the target is unchanged. Nature of the test: SEC-MALS; WTC-03S5 column; purified TBC-DEG (subunits co-expressed and co-purified), αβ-tubulin, TBCC and their complexes; ternary complex with GDP·ALFx (wild type) or GTP (Q73L). A general note: Size exclusion chromatography separates by hydrodynamic size, large species first.
The target in test [4] is T1, Tubulin cofactor D (TBCD), S. cerevisiae Cin1p (S. cerevisiae), P40987.
T1 chain: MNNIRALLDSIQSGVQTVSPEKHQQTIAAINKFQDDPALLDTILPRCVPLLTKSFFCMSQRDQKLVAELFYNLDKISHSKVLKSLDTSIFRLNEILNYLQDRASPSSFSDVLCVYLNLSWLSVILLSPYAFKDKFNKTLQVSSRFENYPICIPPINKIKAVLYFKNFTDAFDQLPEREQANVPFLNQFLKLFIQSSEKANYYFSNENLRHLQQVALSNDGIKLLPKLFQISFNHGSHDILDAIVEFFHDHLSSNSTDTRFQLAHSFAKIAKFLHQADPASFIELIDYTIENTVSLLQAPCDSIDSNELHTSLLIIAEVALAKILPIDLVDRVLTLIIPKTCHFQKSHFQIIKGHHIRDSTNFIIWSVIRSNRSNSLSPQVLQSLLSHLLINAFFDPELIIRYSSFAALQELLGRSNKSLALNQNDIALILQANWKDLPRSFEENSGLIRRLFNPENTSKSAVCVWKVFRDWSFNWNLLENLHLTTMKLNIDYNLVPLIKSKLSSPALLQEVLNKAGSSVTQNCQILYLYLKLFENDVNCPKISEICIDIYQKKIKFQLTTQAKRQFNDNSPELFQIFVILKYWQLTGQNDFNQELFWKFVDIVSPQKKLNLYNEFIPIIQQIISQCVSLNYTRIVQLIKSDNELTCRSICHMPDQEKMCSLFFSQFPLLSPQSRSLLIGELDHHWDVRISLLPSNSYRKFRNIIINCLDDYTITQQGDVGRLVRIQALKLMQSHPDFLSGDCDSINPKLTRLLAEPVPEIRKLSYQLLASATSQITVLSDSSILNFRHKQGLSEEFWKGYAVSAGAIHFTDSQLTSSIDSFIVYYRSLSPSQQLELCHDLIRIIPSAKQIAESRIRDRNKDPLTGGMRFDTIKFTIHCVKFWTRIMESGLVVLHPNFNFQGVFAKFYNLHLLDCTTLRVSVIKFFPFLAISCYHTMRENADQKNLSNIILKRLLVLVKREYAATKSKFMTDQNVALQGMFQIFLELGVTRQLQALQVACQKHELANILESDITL
Described as above. The note with it: remark: other sources report otherwise.

B1: Tubulin cofactor C (TBCC), S. cerevisiae Cin2p (natural protein)
chain: MDFTAKIKELERELSETSDYKTLQKKTISLRSELNTLSHSLTSYEKEHFSNDIENVLKSINAKLSESKGKKRLFSFKQKNSSSAVHKNVERTELANAPAYTTTLKKHYVLEKGDSAFENLEFCTVTSTTDYSGNSALSGSLCFRNITKCVINLQRIFFQTGSIFITDCTDSIIFLRSPSDKDFQIRLRDLKNCKILIEKLSPSIDCKQVVIIENCHKCIFNASTRDHLIIQDFSNPFQSEETEDNSAFAFEDFDICNKDTMQLFRAYL
As for B1, the steady-state GTP hydrolysis kcat (malachite green), 1 μM TBC-DEG:1 μM TBCC:1 μM αβ-tub in test [1] came out at 31300 M⁻¹ s⁻¹. In addition, the steady-state GTP hydrolysis kcat, equimolar αβ-tubulin and TBCC added to TBC-DEG (number as in the text) in test [2] worked out at 0.0308 s⁻¹. In addition, in test [3], the stoichiometry N (as a rule, the number of molecules, sites or subunits per partner or assembly) was 1.

B2: TBCC C-terminal β-helix domain (residues 100-267) (domain or fragment)
chain: YTTTLKKHYVLEKGDSAFENLEFCTVTSTTDYSGNSALSGSLCFRNITKCVINLQRIFFQTGSIFITDCTDSIIFLRSPSDKDFQIRLRDLKNCKILIEKLSPSIDCKQVVIIENCHKCIFNASTRDHLIIQDFSNPFQSEETEDNSAFAFEDFDICNKDTMQLFRAY
In test [1], B2 registered a steady-state GTP hydrolysis kcat, 1 μM TBC-DEG:1 μM TBCC-Cterm:1 μM αβ-tub of 18800 M⁻¹ s⁻¹.

B3: Tubulin cofactor E (TBCE), S. cerevisiae Pac2p, P39937 1-518 (natural protein)
chain: MTYEIGDRLKIGGYFCTIKFIGVIKPWPSVKAYGVEWDDHSRGKHSGTIDDIHYFDVQIPNSGSFLKESKIKSPGVRRITFYEALSEKYGGSSNNINDLSIGNKRVEGLGFDELNARNKNYKKLRKIALRDSDVAILFQNQDELNRVIQNCVNVKDLDLSLNLFTNINSLCEFIEPLKNLESLNISQNKLLSGWDNLKEYDLSHIKTLRLSSCGLSYKHIGKLLKSFRTLKMLDLSYNNLTSAGIQNFENEIPCTLEELNISGNNLISFPLFPKNLTLKGLNVSNNQISRAPSIAIYSVESLDITDNKFKERSLIDDLNKTFPSLKNIHLSGNEFNYNGNYINVEEQATFYEVLARFDRVMVLNGSICDVKTRREAEMFFVSKVMNNELSYDTNLPRWSSLIKSYEIDMSKLSFNNERETRQSLVLKIKIRAGKKPSSDLDYWVLPSFTVRYVKSVICRKLNFDILNVKLFHENSEGMINEIKYNFRPISDFNVVNGDIIHVSSPVNNKSIQKVNSPS
In the case of B3, in test [4], the stoichiometry N came to 1.
